In patent US20170362327A1:

Target: human TrkA on the surface of TF-1 cells (human), P04629
Assay: cell-based or functional assay

Sequence of human TrkA on the surface of TF-1 cells (human), P04629 (P04629 33-796): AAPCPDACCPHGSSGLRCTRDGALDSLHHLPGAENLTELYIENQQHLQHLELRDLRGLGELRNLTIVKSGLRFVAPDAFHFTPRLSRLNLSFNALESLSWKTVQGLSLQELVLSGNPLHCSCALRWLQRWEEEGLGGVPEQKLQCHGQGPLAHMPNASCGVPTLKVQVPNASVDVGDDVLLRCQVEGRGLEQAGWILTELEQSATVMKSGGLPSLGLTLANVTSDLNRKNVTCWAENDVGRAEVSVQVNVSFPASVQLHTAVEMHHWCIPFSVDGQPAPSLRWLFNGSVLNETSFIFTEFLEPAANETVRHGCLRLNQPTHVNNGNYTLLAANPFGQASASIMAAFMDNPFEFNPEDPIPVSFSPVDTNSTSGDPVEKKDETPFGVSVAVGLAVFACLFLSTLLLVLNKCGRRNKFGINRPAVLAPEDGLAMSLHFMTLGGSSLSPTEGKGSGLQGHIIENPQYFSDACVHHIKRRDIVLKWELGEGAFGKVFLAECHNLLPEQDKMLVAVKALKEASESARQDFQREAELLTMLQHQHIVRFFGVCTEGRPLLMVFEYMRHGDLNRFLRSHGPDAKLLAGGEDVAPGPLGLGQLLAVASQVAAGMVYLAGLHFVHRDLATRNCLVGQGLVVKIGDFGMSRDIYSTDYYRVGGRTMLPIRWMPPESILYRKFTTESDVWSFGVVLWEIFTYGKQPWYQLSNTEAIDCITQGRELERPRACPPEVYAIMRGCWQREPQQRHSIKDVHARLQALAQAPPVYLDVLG

TF-1 cell proliferation assay IC50 (beta-NGF induced proliferation): 0.23 µg/mL
B1: MNAC13 mouse antibody (antibody, mouse IgG1, kappa)
heavy: EVKLVESGGGLVQPGGSLKLSCAASGFTFSTYTMSWARQTPEKRLEWVAYISKGGGSTYYPDTVKGRFTISRDNAKNTLYLQMSSLKSEDTALYYCARGAMYGNDFFYPMDYWGQGTSVTVSSKTTPPSVYPLAPGSAAQTNSMVTLGCLVKGYFPEPVTVTWNSGSLSSGVHTFPAVLESDLYTLSSSVTVPSSPRPSETVTCNVAHPASSTKVDKKIVPRDCGCKPCICTVPEVSSVFIFPPKPKDVLTITLTPKVTCVVVDISKDDPEVQFSWFVDDVEVHTAQTQPREEQFNSTFRSVSELPIMHQDWLNGKEFKCRVNSAAFPAPIEKTISKTKGRPKAPQVYTIPPPKEQMAKDKVSLTCMITDFFPEDITVEWQWNGQPAENYKNTQPIMNTNGSYFVYSKLNVQKSNWEAGNTFTCSVLHEGLHNHHTEKSLSHSPGK
light: QIVLTQSPAIMSASLGEEITLTCSASSSVSYMHWYQQKSGTSPKLLIYTTSNLASGVPSRFSGSGSGTFYSLTISSVEAEDAADYYCHQWSSYPWTFGGGTKLEIKADAAPTVSIFPPSSEQLTSGGASVVCFLNNFYPKDINVKWKIDGSERQNGVLNSWTDQDSKDSTYSMSSTLTLTKDEYERHNSYTCEATHKTSTSPIVKSFNRNEC
